± gives the half width of the 95% confidence interval.
Key:
[1] = folding stability dG unfold from trypsin proteolysis; higher = more stable
How it was run: (§1)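 Digests were run with trypsin and chymotrypsin at 11 concentrations in threefold dilutions, plus a no-protease condition, on designed mini-proteins in a PA-tagged cDNA display construct. The mini-proteins were under 80 residues, had no cysteine, and were kept only when AlphaFold2 dimer inter-PAE was above 15. After sequencing, Bayesian fitting of the counts gave K50, from which unfolding free energy was derived against a sequence-predicted unfolded-state K50 and a shared folded-state K50, per protease or combined.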

[2] = folding stability dG unfold from chymotrypsin proteolysis; higher = more stable
How it was run: as §1

[3] = folding stability dG unfold (combined trypsin and chymotrypsin); higher = more stable
How it was run: as §1

Row | Sequence | folding stability dG unfold [1] [kcal/mol] | folding stability dG unfold [2] [kcal/mol] | folding stability dG unfold [3] [kcal/mol]
1 | SAGGMVVTEEGDKTYITVRVPAPPGLPPEAVAAEIRERYGLSDLEVLEVEALPDGTLVVRLRDSTPASAGGS [r16_234_JUSTAS] | 2.55 ± 0.074 | 2.554 ± 0.021 | 2.55 ± 0.044
2 | PEKVILVEVPAGEELTEEELKELAEALGLEVEIEKVKVTVTVTVEVTLPDGKKVKVETTETRTVVLVTVKDS [r1_238_TrROS_Hall] | 2.66 ± 0.077 | 3.42 ± 0.14 | 3.16 ± 0.14
3 | SAGGSAPAKVEPLRVKIEFTPPNGEKHTFPMEIHRVHDNAIEIQDGGQPIRIPPNLDNIQITDIELSAGGSA [r15_510_TrROS] | -0.614 ± 0.34 | 0.558 ± 0.044 | 0.356 ± 0.14
4 | SAGGSAGGSAGSTVTLTVDPDTNVATLTAIIGGKPVTATLTFIPNTGKARLPDGTWIDISSAGGSAGGSAGG [r11_395_TrMRF] | 1.43 ± 0.034 | 1.03 ± 0.051 | 1.28 ± 0.069
5 | SAMIEILSIEEFTRPDGKKLYKITLKTPDPEKVLEKLIELGVKPEIDPNNPDILIAVFPYEKIEEILKESAG [r14_777_TrMRF] | 3.12 ± 0.14 | 5.05 ± 0.23 | 4.77 ± 0.31
6 | SAGGSTVSVVPFPDYLLVVTTDVRRTPVPDTDTVSTELTTTVTVIPLPDVPPPVLPFLDADGNPYYASAGGS [r8_46_TrMRF] | 1.01 ± 0.093 | 0.522 ± 0.11 | 0.694 ± 0.093
7 | SAGGSAGGSAAPDEKLKITVELVDPNNGKRIEEKEYPNMTIEEVKKEAEEKGLKIVKIEVSSAGGSAGGSAG [r3_423_JUSTAS] | -0.382 ± 0.083 | -0.116 ± 0.061 | -0.173 ± 0.29
8 | SMKVVKLYTDPEGRVVIEITLPKPDGTPVSEEEAKAIADEIAAELKPKYPNATFEITYDPKTGVVTITIGSA [r9_485_JUSTAS] | 3.49 ± 0.13 | 2.51 ± 0.053 | 2.97 ± 0.1
9 | SAGMKKVIELTIPVTGPEEVEELVAKLEEEEPAVPVERRPDPRLGAVRVVVEKKFPDSIVYITLTAAASAGG [r19_262_JUSTAS] | 0.784 ± 0.042 | 0.496 ± 0.071 | 0.677 ± 0.065
10 | SAGGSAMSPEEVEEKIKEIAKKLGVEIEVKVEISPEGGIKITVKVNDKFDINEIKKGIEEALGIKLSAGGSA [r15_807_JUSTAS] | 4.4 ± 0.55 | 2.65 ± 0.16 | 3.94 ± 0.45
11 | SAGGSAGGMIEVSYDPVKNRYIATFKFPEGEVTITLPADLSPEEKAAAIKAAAEAAAKEKGIKLSAGGSAGG [r6_679_JUSTAS] | 1.68 ± 0.025 | 2 ± 0.05 | 1.88 ± 0.058
12 | SAGGMITTSTLSDGTTVVTIRVPGSPEEADAVAEEVREALLAAGYRTVEVSREPVEDGWVVTITTVSSAGGS [r8_113_JUSTAS] | 3.28 ± 0.063 | 3.888 ± 0.029 | 3.711 ± 0.031
13 | SLEEKIKEAIENSPPNSEVIVPLPDDRTVKITVTPETVTGDGRRRLRIKVTITIYDPSGTKLGEKVLEIPLS [r1_386_JUSTAS] | 2.66 ± 0.052 | 4.12 ± 0.17 | 3.69 ± 0.16
14 | SAGGSAGGSAGMTPEEEVEYEIEVPDPNSDNLKTKIKLKFPVGTPEEEIKKKAEELAKKLSAGGSAGGSAGG [r11_516_JUSTAS] | 1.67 ± 0.11 | 1.67 ± 0.093 | 1.73 ± 0.19
15 | SSDIKIEIDIERNDDGYLTFTIEIRHPDPQQLVDAAKEIILELFPPGVNIDVEPHPDGWVKAPIMFPLPKSA [r9_646_TrROS] | 0.735 ± 0.13 | 1.63 ± 0.086 | 1.35 ± 0.25
16 | SAGGSAGGSEEILKALGVEPGDEVEIEMTPEELEELLALPGVEPVRVEERPDGRLRVRIRILPSAGGSAGGS [r12_750_TrROS_Hall] | 3.14 ± 0.11 | 2.93 ± 0.077 | 2.99 ± 0.1
17 | SAGGKPTQTITITLKDGRTLTIKVGQTVTITLDNGKTITVTVKDATITVKDGKVTITVNGKTYTFTVKSAGG [r13_643_TrROS_Hall] | 3.45 ± 0.24 | 4.73 ± 0.13 | 4.62 ± 0.23
18 | SAGGSAGGSAGDWIMFNFTYKDPGDPGKERTITILIPIPPPPPPEPKPVKDPNGNEGPVYSAGGSAGGSAGG [r11_419_TrROS] | 1.69 ± 0.1 | 1.86 ± 0.08 | 1.99 ± 0.18
19 | SGMVEVKVTVPPGPATLTATPSDGSTYSKSIPANSEVTFTFPVPASLPSSTTITFTLTFPDTGTTTTTSVSA [r9_275_JUSTAS] | 1.28 ± 0.051 | 1.26 ± 0.25 | 1.28 ± 0.26
20 | SAGGSAMTLEEARELVERLVRELFPDAEVLDVDAVRLPDRLVLVDAVVRPKYRPDEVLRFRFLLGDSAGGSA [r15_627_TrMRF] | 3.53 ± 0.1 | 4.106 ± 0.032 | 3.94 ± 0.06
21 | SAGGSAGGSMKLTLESASPDPNKVTYTIKFPGGETLTEELPEEEIEKRSKELGWNIKLFGPTKSAGGSAGGS [r12_676_JUSTAS] | -0.0326 ± 0.29 | 0.098 ± 0.42 | -0.0928 ± 0.28

Row | Sequence | folding stability dG unfold [1] [kcal/mol] | folding stability dG unfold [2] [kcal/mol] | folding stability dG unfold [3] [kcal/mol]
22 | SAGGEKDLYLVKYRVEIKNDKGEKKEFPVTAIATSLEELEETLKALTPKNAEAKVEILEVKPLKEVLSSAGG [r13_513_TrMRF] | 1.86 ± 0.091 | 1.55 ± 0.038 | 1.72 ± 0.1
23 | SAMIEIEAVFPPNVSLEEAVEAVKAEIESKGFEILEVKVEKLPNGEVLVRAVVKVKPEMPPEEIKKLAESAG [r14_110_TrMRF] | 1.5 ± 0.06 | 2.44 ± 0.2 | 2.07 ± 0.19
24 | SAGGSAGGMVERPITLRVRVKTPEEVKKLVEELLKPTDAKADVVEEELEDGTVLVTLTIYVPEESAGGSAGG [r6_719_TrMRF] | 1.67 ± 0.019 | 1.58 ± 0.038 | 1.62 ± 0.042
25 | SAGGSAGGSAGGMTPEEIEAALQKAREENSEDEEFTVTVTDPETGEVLTIRIDPNSVTIESAGGSAGGSAGG [r7_45_JUSTAS] | 1.15 ± 0.034 | -0.0816 ± 0.11 | 0.719 ± 0.08
26 | SAGGMTLTLTGPEEVVDDLLERLREEFPDVTVEPTAVSYDPATGLVTVPVRVVTEDPAVVAAIRAALSSAGG [r13_539_JUSTAS] | 4.08 ± 0.091 | 3.562 ± 0.03 | 3.79 ± 0.065
27 | SAGGSAMLTLLYRVPPGDPLAHAREIAEALEERFGAKVRILDVKVERDPVTREVYIPVVVELELPESAGGSA [r15_70_TrMRF] | 0.856 ± 0.074 | 1.3 ± 0.16 | 1.14 ± 0.17
28 | SAGGGPVTEETYTIKRPDGTELVVTRYYFPGTGETVVRIYPPSTKTPLSTVPLSEASPELLAEIARRSAGGS [r8_32_JUSTAS] | 1.2 ± 0.027 | 2.108 ± 0.013 | 1.79 ± 0.03
29 | SAGGSAGGSGEELRNLLANVKKVTVFPNADGGLGVLIELEPEEPEERTIVLNYDQLAELLALGSAGGSAGGS [r12_466_TrMRF] | 0.916 ± 0.026 | 0.813 ± 0.11 | 0.936 ± 0.15
30 | SAIKLPDGFEIKEVEFTPDGNVTIKIEVKKYSFMIYNPDNGQIQHIPPGKEQEITMPPNEPMRIWVIKPSAG [r14_385_TrROS] | 1.45 ± 0.13 | 1.58 ± 0.26 | 1.48 ± 0.36
31 | SAGEKEFEIVEVKVNKETNEVYFLVRDKEKNRLIKVHSNGTVEIYDLKDPGKKITINMSLEELLALLKKSAG [r5_491_TrROS_Hall] | 2.49 ± 0.16 | 4.26 ± 0.19 | 4.08 ± 0.19
32 | SAKITFIAPGGKPIVIDIDPNYEVIEVIEFPELGVVLILLRNPETGELYAILITPPDYRPTYIELIPLDSAG [r14_311_TrMRF] | 3.43 ± 0.096 | 4.29 ± 0.15 | 4.17 ± 0.2
33 | SAGGSAGGSAGGMIRIENPGNGEPRPIKPNDLEDILDNFPGPMRIETGGGEKEVPAKDISAGGSAGGSAGGS [r10_839_TrROS] | -0.528 ± 0.13 | 0.052 ± 0.079 | -0.0618 ± 0.21
34 | SAGGSAGGSTIRIRVKTREEAERLAKLIPGARITYDEETKEFYLEIRLPPAPPPSLEELKAALSAGGSAGGS [r20_191_TrROS_Hall] | 3.62 ± 0.062 | 1.96 ± 0.038 | 2.84 ± 0.058
35 | SAGGSAVTVVTVELTSPGSTHTITIPASEVEGLSLEEIEARLKALPEVSEITLTRSELPPLNPSLASAGGSA [r2_282_JUSTAS] | 0.788 ± 0.042 | 0.752 ± 0.012 | 0.802 ± 0.046
36 | MMTKEEIEKLAEELAKELEKKGYKIVKVEIEEVKPGEVKIKVDGKEITITLKDGRKLRIKVEVKKLPKEELS [r1_31_TrROS_Hall] | 1.97 ± 0.053 | 3.63 ± 0.11 | 3.04 ± 0.11
37 | SAMYEPAEFSFTLPNGEKIHITAPKNPNTDEPIVSITIYRKLPDGNTVSFTITVKSSDIDEIIEKLGIKSAG [r14_416_TrMRF] | 3.39 ± 0.095 | 3.74 ± 0.11 | 3.67 ± 0.32
38 | SAGGSAGGSAGGMPPFVELEFVGEFKVNGEKVLVLRLPDGSIRIVNLKTGETITVPASLLSAGGSAGGSAGG [r7_28_JUSTAS] | 2.33 ± 0.048 | 2.67 ± 0.038 | 2.57 ± 0.067
39 | SAGGSVEIWILLPPNNPDLDKIREKLRDEPGIDDVNVKVVKPTPGYWVFEIEVNGDPEVADKIRDLISAGGS [r16_394_TrROS] | 1.09 ± 0.1 | 1.61 ± 0.18 | 1.51 ± 0.26
40 | SAGGSAGGSAGMTTLTVTVPAPPDALTPEDVVALLRPEYPDATITVTREGDTLVVTVTVASAGGSAGGSAGG [r11_7_JUSTAS] | 3.31 ± 0.058 | 2.39 ± 0.033 | 2.83 ± 0.047
41 | SAGSSLNILLELETPEEAEKEAARIKEEIPKKGISVTVTIVSKEELEKLLKENVIELPNGSLKLVLFPSAGG [r19_187_JUSTAS] | 0.201 ± 0.11 | 0.138 ± 0.19 | 0.218 ± 0.25
42 | SAGGSAGGKKKYLVKITIKYVDKKTGKLVKEETITVEVSEEELEELLKKLPPGAEITKIEIYKLSAGGSAGG [r6_776_TrROS_Hall] | 2.96 ± 0.13 | 3.58 ± 0.071 | 3.4 ± 0.071
